T1: SBP-UNK ZnF1-6 (30-357) (human, UniProt Q9C0B0 30-357)
T1 sequence: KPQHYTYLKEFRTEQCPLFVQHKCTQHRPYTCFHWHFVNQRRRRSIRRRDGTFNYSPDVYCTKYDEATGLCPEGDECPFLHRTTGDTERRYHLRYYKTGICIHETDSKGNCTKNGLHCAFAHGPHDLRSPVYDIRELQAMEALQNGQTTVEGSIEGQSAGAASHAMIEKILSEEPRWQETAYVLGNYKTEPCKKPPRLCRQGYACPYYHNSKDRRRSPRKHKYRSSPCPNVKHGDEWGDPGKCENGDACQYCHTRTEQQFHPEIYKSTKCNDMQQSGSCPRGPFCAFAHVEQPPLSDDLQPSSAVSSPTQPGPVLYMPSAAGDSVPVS


Target: T1, SBP-UNK ZnF1-6 (30-357)
Assay: fluorescence polarization

Binder	Kd
UACAUCGCAUUAGACAUUUU (ssRNA) [Human GTPB4 FP RNA]	263 nM
UUCAUCGCAUUAGACAUUUU (ssRNA) [Chi58-67 gtpb4 FP RNA]	305 nM

Source: publication PMC11436793
